Patent US6509447B1, “G protein chimeras and methods of screening compounds” (Glaxo Welcome Inc., priority 1997, dated 2003)

Tests used:
serotonin 5HT1A receptor = target: T1, serotonin 5HT1A receptor (Homo sapiens, UniProt P08908); assay: CPRG assay, MMY9 cells expressing 5-HT1A receptor plus Gα subunit; type: cell-based; parameters: key to coupling class where no EC50 could be fitted: weak activation insufficient to carry out curve-fitting was detected; NC: no coupling was detected
T1 construct: expressed in transfected cells; host or cells: Saccharomyces cerevisiae strains MMY9 and MMY11, plasmid pDT-PGK-5-HT1A
T1 sequence (P08908 1-422): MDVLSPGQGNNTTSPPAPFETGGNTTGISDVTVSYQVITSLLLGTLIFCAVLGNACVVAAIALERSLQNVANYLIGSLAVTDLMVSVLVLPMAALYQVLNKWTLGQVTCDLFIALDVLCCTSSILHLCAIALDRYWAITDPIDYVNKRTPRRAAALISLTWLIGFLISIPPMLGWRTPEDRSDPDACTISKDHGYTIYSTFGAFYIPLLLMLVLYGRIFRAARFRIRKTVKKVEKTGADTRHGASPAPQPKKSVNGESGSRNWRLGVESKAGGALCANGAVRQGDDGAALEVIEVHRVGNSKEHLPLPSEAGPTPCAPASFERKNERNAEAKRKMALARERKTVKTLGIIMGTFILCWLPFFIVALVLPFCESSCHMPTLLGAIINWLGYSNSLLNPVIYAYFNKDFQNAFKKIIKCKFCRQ
Procedure: Assay for combined FUS1-lacZ and FUS1-HIS3 Expression. In vivo assays of reporter gene induction (CPRG assays) were carried out by suspending cells to 0.02 OD600 in 200 μl SC-glucose (2%) lacking tryptophan, uracil and histidine. This medium was supplemented with agonists, and additionally 10 mM 3-aminotriazole and the β-galactosidase (lacZ) substrate chlorophenolred-β-D-galactopyranoside (CPRG; Boehringer) to a concentration of 0.1 mg/ml. To visualise the colour change reaction, the medium was buffered to pH 7 with 0.1 M sodium phosphate. The assay was conducted in a 96-well microtitre plate format. Plates were incubated for 24 hours without agitation, and absorbance at 570 nm was determined using a Victor microtitre plate reader (Wallac). EC50 values (+/−standard error) were estimated by curve-fitting, using the Robosage software package.
This experiment illustrates that, for certain receptors, the efficiency of coupling to the yeast pheromone response pathway can be enhanced by creating chimeras between yeast and mammalian Gα subunits. […] Agonist-dependent activation of FUS1-lacZ was determined by incubating cells in medium supplemented with the chromogenic, cell-permeant β-galacosidase (lacZ) substrate, chlorophenolred-β-D-galactopyranoside (CPRG; Boehringer Mannheim). […]

[1] = system: pheromone response pathway (FUS1-LacZ; Ste2p receptor); assay: ONPG β-galactosidase assay of FUS1-LacZ in extracts of MMY9 cells; type: cell-based, Saccharomyces cerevisiae; settings: G protein expressed from GPA1 promoter
Procedure: Assays for FUS1-IacZ Expression. β-galactosidase activities in cell extracts were measured with two assays. In the first assay (ONPG assay), cell extracts were incubated with the substrate ONPG as described by (37). Units were defined as (A420×1000)/(OD600x×t×v) (25). In the chemiluminescent assay, cells were grown to late logarithmic phase and diluted to 0.02 OD600 in 100 μl SC-WH medium in the presence or absence of 1 μM α-factor in 96-well microtitre plates. After incubation (30° C.; 6 hours), 20 μl of cells were removed and mixed with 20 μl assay mix (125 mM sodium phosphate pH 7.6, 15 mM MgSO4, 200 μM Galacton-Star β-galactosidase substrate (Tropix), 10% (v/v) Sapphire II (Tropix), 1 U/μl oxalyticase (Enzogenetics)). After incubation (30° C.; 1 hr) chemiluminescence was determined in a Top-count scintillation counter (Packard).
The Gα15/Gα16 subunits are reported to interact with a much broader range of receptors than is typical for a Gα subunit, and have the ability to couple receptors which normally interact with Gαi, Gαs or Gαq (26). […] We constructed a plasmid encoding a Gpa1/Gα16 C-terminal domain chimera (pRS314-Gpa1/Gα16; FIG. 5b); FIG. 6h) derived from the same centromeric vector as used for expression of functional chimeras described above. The level of FUS1-LacZ induction in MMY9 cells expressing the Gpa1/Gα16 chimera was determined by preparing cell extracts, and incubating them with the LacZ substrate o-Nitrophenyl β-D-galactopyranoside (ONPG; see Materials and Methods). Gpa1/Gα16 reduced FUS1-LacZ expression resulting in β-galactosidase activity of 79+/−8 units (Table 2). This level was intermediate between the activity of control cells transformed with vector (239+/−30 units), in which the pathway is constitutively activated due to the absence of Gα, and the basal activity in cells producing wild-type Gpa1p (19+/−4 units).

B1: Gpa1p: endogenous yeast Gα subunit, product of the GPA1 gene (protein, UniProt P08539 2-472, looked up)
Guanine nucleotide-binding …: GCTVSTQTIGDESDPFLQNKRANDVIEQSLQLEKQRDKNEIKLLLLGAGESGKSTVLKQLKLLHQGGFSHQERLQYAQVIWADAIQSMKILIIQARKLGIQLDCDDPINNKDLFACKRILLKAKALDYINASVAGGSDFLNDYVLKYSERYETRRRVQSTGRAKAAFDEDGNISNVKSDTDRDAETVTQNEDADRNNSSRINLQDICKDLNQEGDDQMFVRKTSREIQGQNRRNLIHEDIAKAIKQLWNNDKGIKQCFARSNEFQLEGSAAYYFDNIEKFASPNYVCTDEDILKGRIKTTGITETEFNIGSSKFKVLDAGGQRSERKKWIHCFEGITAVLFVLAMSEYDQMLFEDERVNRMHESIMLFDTLLNSKWFKDTPFILFLNKIDLFEEKVKSMPIRKYFPDYQGRVGDAEAGLKYFEKIFLSLNKTNKPIYVKRTCATDTQTMKFVLSAVTDLIIQQNLKKIGII
Question: Which results are given for B1?
Answer: agonist-dependent induction of FUS1-LacZ / coupling, in words (serotonin 5HT1A receptor): failed to signal; coupling class where no EC50 could be fitted (serotonin 5HT1A receptor): NC; β-galactosidase activity (FUS1-LacZ), No Alpha Factor [1]: 19+/−4 units; β-galactosidase activity (FUS1-LacZ), Plus Alpha Factor [1]: 273 +/− 49 units; β-galactosidase activity (FUS1-LacZ), No Alpha Factor ([1]; listed as GPA1): 19 +/− 4 units
